The chains are these.
T1: S. cerevisiae Pex5p TPR domain (305 aa), Gal4p DNA-binding domain fusion (pAH987) (S. cerevisiae)
T1 sequence (P35056 whole entry, looked up): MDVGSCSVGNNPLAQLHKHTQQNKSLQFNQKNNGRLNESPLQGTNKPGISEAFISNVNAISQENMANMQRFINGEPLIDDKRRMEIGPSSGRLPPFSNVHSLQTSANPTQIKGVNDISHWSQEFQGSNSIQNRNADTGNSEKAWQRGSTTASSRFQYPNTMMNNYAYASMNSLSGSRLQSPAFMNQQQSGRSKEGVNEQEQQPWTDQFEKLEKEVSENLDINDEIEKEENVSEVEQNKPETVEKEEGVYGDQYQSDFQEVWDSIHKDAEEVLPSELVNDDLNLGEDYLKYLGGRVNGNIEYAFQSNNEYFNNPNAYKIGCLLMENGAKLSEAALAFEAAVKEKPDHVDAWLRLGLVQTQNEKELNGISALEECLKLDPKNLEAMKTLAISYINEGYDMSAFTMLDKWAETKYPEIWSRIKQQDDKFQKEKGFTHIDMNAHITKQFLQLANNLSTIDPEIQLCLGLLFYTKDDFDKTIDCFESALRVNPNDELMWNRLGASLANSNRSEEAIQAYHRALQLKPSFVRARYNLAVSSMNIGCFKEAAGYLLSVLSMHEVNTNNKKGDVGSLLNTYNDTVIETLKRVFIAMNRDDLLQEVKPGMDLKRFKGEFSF

Where no end group is shown, it is not given here.

The target of the first test is C. elegans PEX-5 TPR domain (267 aa), Gal4p DNA-binding domain fusion (pSL8) (C. elegans). In words: two-hybrid; yeast strain PCY3; Pex5 TPR domain in pGBT9 (Gal4p DNA-binding domain) with Gal4p activation domain-peptide fusions in pGAD GH; b-galactosidase activity measured with O-nitrophenyl-b-D-galactoside on cells grown at 30 C in liquid selective medium; mean of three independent experiments per strain. The note with it: scale: nmol O-nitrophenyl-b-D-galactoside hydrolysed/min/mg protein.
In turn, Gal4p-SGGVVARAAKM displayed a b-Galactosidase activity of 293.
Same read-out and setting: the same measure for Gal4p-TWNRETKGLNAVYGKL: 90.3.
Still for that read-out and setting: the same measure for Gal4p-NGMTRSGRQGGGFAKL: 352; for Gal4p-QRKANGRDRGGWWAKL: 631; for Gal4p-GKNRGSESHGSARQKL: 57.9.
The same measure, in the same setting: the same measure for Gal4p-RQRELSANALGGLAKL: 447; for Gal4p-KRVWRRQWSTGRKLKL: 3.8; for Gal4p-EGLIVMLERGKL: 143.
Molecule Gal4p-WYGPGPGCCRRRDLKL (cysteine pairing not given here) displayed a b-Galactosidase activity of 4.4.

The target of another test is T1, S. cerevisiae Pex5p TPR domain (305 aa), Gal4p DNA-binding domain fusion (pAH987) (S. cerevisiae). Described as above. Conditions: scale: nmol O-nitrophenyl-b-D-galactoside hydrolysed/min/mg protein.
On to Gal4p-CERSKL [Gal4p-CERSKL], for which the b-Galactosidase activity came to 163.
Gal4p-FEWGSQGWTRGRMHML showed a b-Galactosidase activity of 39.

Values taken from article PMC2448379.
